Data on eight molecules can be found in patent US20100021477A1 (Janssen / Centocor, published 2010).

What is called koff is a measure of how fast the partners let go of each other. A higher koff goes with fast dissociation. As usually defined, the kon is the rate constant with which the complex forms. A high value points to faster complex formation.

Test [1] deals with T1, Hen-Egg White Lysozyme (HEL) (hen, UniProt P00698 19-147). Nature of the test: BIAcore. In general terms: In SPR one partner is held on a chip, and binding of the other changes the refractive index at the surface.
The target of test [2] is T2, Bovine Serum Albumin (BSA) (bovine, UniProt P02769 25-607). Nature of the test: BIAcore, BSA on the chip (40 RU).
Test [3] concerns the target T2, Bovine Serum Albumin (BSA). Nature of the test: BIAcore, BSA on the chip (40 RU), purified Fab.
Test [4] concerns the target T2, Bovine Serum Albumin (BSA). Nature of the test: BIAcore, BSA on the chip (40 RU), purified Fab; apparent KD.
Test [5] has as its target T2, Bovine Serum Albumin (BSA). Nature of the test: BIAcore.
Test [6] addresses T1, Hen-Egg White Lysozyme (HEL). Nature of the test: BIAcore, lysozyme on the chip (10 RU), purified Fab.
The target is the same in test [7]. Nature of the test: BIAcore, lysozyme on the chip (10 RU), purified Fab; apparent KD.

Positions count from the first letter of the chain named.

T2 sequence (P02769 25-607 limits assumed): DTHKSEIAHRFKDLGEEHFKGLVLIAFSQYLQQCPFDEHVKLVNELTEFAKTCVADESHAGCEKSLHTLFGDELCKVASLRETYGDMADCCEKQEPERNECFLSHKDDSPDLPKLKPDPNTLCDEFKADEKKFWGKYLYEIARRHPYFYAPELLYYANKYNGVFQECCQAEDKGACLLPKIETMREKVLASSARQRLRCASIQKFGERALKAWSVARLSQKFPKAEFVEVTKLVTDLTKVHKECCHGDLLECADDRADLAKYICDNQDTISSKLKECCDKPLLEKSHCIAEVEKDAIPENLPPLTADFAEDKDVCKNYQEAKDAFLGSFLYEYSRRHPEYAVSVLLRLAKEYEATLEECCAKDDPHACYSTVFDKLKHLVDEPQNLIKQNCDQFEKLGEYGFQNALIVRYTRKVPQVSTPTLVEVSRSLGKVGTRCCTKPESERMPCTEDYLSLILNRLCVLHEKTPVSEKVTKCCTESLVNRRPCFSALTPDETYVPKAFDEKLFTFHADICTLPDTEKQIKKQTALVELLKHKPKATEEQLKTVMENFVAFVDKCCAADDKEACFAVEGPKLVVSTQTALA
T1 sequence (P00698 19-147 limits assumed): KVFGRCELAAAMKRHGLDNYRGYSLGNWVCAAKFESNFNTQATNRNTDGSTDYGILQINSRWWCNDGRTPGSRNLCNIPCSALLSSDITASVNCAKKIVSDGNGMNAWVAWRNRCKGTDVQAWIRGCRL

B1: Fab C6 (Fab, V domains shown)
VH: QVQLVQSGAEVKKPGSSVKVSCKASGGTFSSYGISWVRQAPGQGLEWMGGIIPIFGTANYAQKFQGRVTITADESTSTAYMELSSLRSEDTAVYYCARLCVSPAWDQCFDYWGQGTLVTVSS
VL: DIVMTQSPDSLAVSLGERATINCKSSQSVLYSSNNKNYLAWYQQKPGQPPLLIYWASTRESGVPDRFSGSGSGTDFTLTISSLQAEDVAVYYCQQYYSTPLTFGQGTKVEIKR
notes: also called C6 (Hc/Lc)
Regarding B1, the binding result in test [1] and in test [2] was “no binding” in each case.

B2: Fab D11 (Fab, V domains shown)
VH: QVQLVQSGAEVKKPGSSVKVSCKASGGTFSSYAISWVRQAPGQGLEWMGGIIPIFGTANYAQKFQGRVTITADESTSTAYMELSSLRSEDTAVYYCARIRWGGWFRGYLDYWGQGTLVTVSS
VL: not shown
notes: also called D11(Hc/Lc)
Consider B2, for which the binding result in test [1] was “no binding”.

B3: Fab C2 (Fab, V domains shown)
VH: QVQLVQSGAEVKKPGSSVKVSCKASGGTFSSYAISWVRQAPGQGLEWMGGIIPINGNANYAQKFQGRVTITADESTSTAYMELSSLRSEDTAVYYCARRAGMRVQTYYFFDYWGQGTLVTVSS
VL: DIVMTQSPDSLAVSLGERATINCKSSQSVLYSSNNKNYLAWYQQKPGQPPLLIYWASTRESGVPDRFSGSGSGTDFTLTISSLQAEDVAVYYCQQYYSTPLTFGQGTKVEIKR
notes: also called C2 (Hc/Lc)
As for B3, in test [1], the binding result is “no binding”. In addition, in test [3], the koff was found to be 0.00169 s⁻¹ and the kon was found to be 60000 M⁻¹ s⁻¹. In addition, the Kd in test [4] worked out at 28 nM.

B4: Fab E7 (Fab, V domains shown)
VH: QVQLVQSGAEVKKPGSSVKVSCKASGGTFSSYAISWVRQAPGQGLEWMGGIIPIFGTANYAQKFQGRVTITADESTSTAYMELSSLRSEDTAVYYCAREGGEVYDWEYYLDYWGQGTLVTVSS
VL: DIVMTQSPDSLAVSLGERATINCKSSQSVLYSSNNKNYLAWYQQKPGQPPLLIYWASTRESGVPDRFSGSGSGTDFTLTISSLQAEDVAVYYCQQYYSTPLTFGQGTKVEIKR
notes: also called E7 (Hc/Lc)
With B4, the binding result in test [5] is recorded as “no binding”. In test [6], this molecule returned a koff of 0.12 s⁻¹ and a kon of 460000 M⁻¹ s⁻¹. Moreover, the Kd in test [7] was found to be 260 nM.

B5: Fab F4 (Fab, V domains shown)
VH: QVQLVQSGAEVKKPGSSVKVSCKASGGTFSSYGISWVRQAPGQGLEWMGGIIPIFGTANYAQKFQGRVTITADESTSTAYMELSSLRSEDTAVYYCARDFGVYTWLGQTFDYWGQGTLVTVSS
VL: not shown
notes: also called F4 (Hc/Lc)
B5: the binding result in test [1] is “no binding”. In test [3], the koff is 0.00048 s⁻¹ and the kon was 51000 M⁻¹ s⁻¹. Further, the Kd in test [4] is 9 nM.

B6: Fab E5 (Fab, V domains shown)
VH: QVQLVQSGAEVKKPGSSVKVSCKASGGTFSSYAISWVRQAPGQGLEWMGWIIPYNGNANYAQKFQGRVTITADESTSTAYMELSSLRSEDTAVYYCARHTPVRDLDYWGQGTLVTVSS
VL: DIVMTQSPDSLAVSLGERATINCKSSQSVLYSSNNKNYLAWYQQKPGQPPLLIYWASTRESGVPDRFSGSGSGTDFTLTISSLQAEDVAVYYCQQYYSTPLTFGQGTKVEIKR
notes: also called E5 (Hc/Lc)
B6: the binding result in test [5] is reported as “no binding”. In test [6], this molecule showed an off-rate (koff) of 0.00233 s⁻¹ and an on-rate constant (kon) of 227000 M⁻¹ s⁻¹. Further, the Kd in test [7] was 10 nM.

B7: Fab D6 (Fab, V domains shown)
VH: QVQLVQSGAEVKKPGSSVKVSCKASGGTFSSYAISWVRQAPGQGLEWMGGIIPIFGTANYAQKFQGRVTITADESTSTAYMELSSLRSEDTAVYYCARGIIGINLVVLDYWGQGTLVTVSS
VL: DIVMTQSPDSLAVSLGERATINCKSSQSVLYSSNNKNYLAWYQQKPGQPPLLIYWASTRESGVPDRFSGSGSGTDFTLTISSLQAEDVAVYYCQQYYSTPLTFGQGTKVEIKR
notes: also called D6 (Hc/Lc)
Regarding B7, the binding result in test [1] is “no binding”. In test [3], this molecule had an off-rate (koff) of 0.00195 s⁻¹ and an on-rate (kon) of 572000 M⁻¹ s⁻¹. For the same molecule, in test [4], the Kd amounted to 4 nM.

B8: Fab F6 (Fab, V domains shown)
VH: B7 VH with I103T, N104I, L105T, V106Y, L108F
VL: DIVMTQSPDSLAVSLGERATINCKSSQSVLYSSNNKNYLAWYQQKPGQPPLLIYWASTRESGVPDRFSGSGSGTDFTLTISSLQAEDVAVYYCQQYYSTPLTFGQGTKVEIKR
notes: also called F6 (Hc/Lc)
As to B8, the binding result in test [1] was “no binding”. In test [3], this molecule registered an off-rate constant (koff) of 0.0113 s⁻¹ and a kon of 430000 M⁻¹ s⁻¹. In test [4], the Kd was determined as 26 nM.
